Results on three molecules are retold here after patent publication US10428347B2, “Herbicide-detoxifying enzymes and uses thereof” (priority 2017, dated 2019).

Assay [1] is described as follows: Absorbance spectra assay of mecoprop degradation by ChD or CAC. The following applies: one hour at 37° C. The format is biochemical. The protocol:
(§1) Small scale (1 mL) assays were performed to evaluate the ability of ChD and CAC to degrade MCPA-4 amine or mecoprop.
(§2) MCPA-4 amine and mecoprop have absorbance maxima (Amax) at approximately 230 and 280 nm. […] MCPA-4 amine or mecoprop end product generation is directly proportional to the degradation MCPA-4 amine or mecoprop, respectively.

The nature of assay [2]: Absorbance spectra assay of MCPA-4 amine degradation by ChD or CAC. The format is biochemical. As to conditions: one hour at 37° C. The protocol:
as §1, §2

Assay [3] deals with soybean plants. Kind of assay: Field soybean plant protection assay with dicamba, CAC or ChD and MnSO4. As to conditions: field soybean V3-V6, dicamba reaction buffer 200 ppm with 50 mM MnSO4, after 11 days.
Procedure: The CAC and ChD enzymes were generated in production batches as previously described and divided up into aliquots and centrifuged to remove any cellular debris. […] The dilution to achieve 200 ppm or 200 mg/L was made in 25 mM HEPES pH 7 in a 10 mL total volume. […] To each treatment, 0.01% SILWET L-77 surfactant was added. Then, 4 mL of reaction solution was applied evenly across 20 plants and compared to the untreated control plants applied to soybean grown in the same location in the field to minimize any field variability. After 11 days, the average trifoliate damage was evaluated by visual scoring.
The nature of assay [4]: Absorbance spectra assay of 2,4-D degradation by ChD or CAC. The format is biochemical. The following applies: 2,4-D 200 mg/L + enzyme at 20X dilution (5 μM), one hour at 37° C.
Assay [5] is described as follows: Absorbance spectra assay of dicamba degradation by ChD or CAC. The following applies: dicamba 200 mg/L + enzyme at 20X dilution (5 μM), one hour at 37° C.
A short description of assay [6]: 2,4-D degradation by TfdA (2,4-dichlorophenol colorimetric assay and HPLC). It counts as biochemical. As for the experimental part: They were cloned, expressed, and produced in production batches as previously described for SM1 and other pesticide detoxifying enzymes. […] Reactions were then added to a 15 mL conical tube and placed in a shaker at 30° C. Aliquots consisting of 1 mL were taken from each reaction at the desired time points and flash frozen in a −80° C. freezer for later testing.
The 2,4-D degradation reaction samples were defrosted and vortexed. Samples consisting of 200 μL of each reaction were removed and placed in a 96 well plate. To each well on the assay plate containing a reaction sample, […] pH 10 (0.309 g boric acid, 0.373 g potassium chloride, 4.4 mL 1 M NaOH per 100 mL solution), 2 μL 2% 4-aminoantipyrine, and 2 μL 8% potassium ferricyanide were added. The wells were mixed by back pipetting. The plate was then covered with a film and placed in a 30° C. incubator for 1 hour.

In assay [7] the test system is soybean plants. Kind of assay: V1 soybean bioassay of dicamba reacted with ChD with or without MnSO4. The following applies: dicamba 100-200 ppm.
Procedure: Soybean plants (variety Morsoy Xtra) were planted in Timberline soil (2 seeds per pot) and grown for 12 days under controlled environmental growth conditions: 300 μmol m^−2 s^−1 (light photons) for a 13/11 light/day cycle and a 21° C. day/15° C. night temperature range until the V1 stage of development.
The dilution to achieve 100 ppm or 100 mg/L was made in 25 mM HEPES pH 7 in a 10 mL total volume. […] The ChD enzyme production was centrifuged to remove any cellular debris and then divided into aliquots of 100 μL containing the Bacillus subtillis (A64) filtrate with the ChD expressed enzyme. […] The reactions were incubated at 37° C. with 400 ppm stirring for two hours. Aliquots of the reactions were collected and stored at −80° C.
Assay [8] deals with soybean plants. Kind of assay: Soybean seed treatment with chlorothalonil dehalogenase, simulated spray drift of dicamba or 2,4-D. It counts as in vivo. As to conditions: soybean seed coated with 3 uL enzyme, 4 weeks after planting; for Percentage Increase in Plant Height Compared to Untreated Seed (2,4-D; Weedar ®64 Spray Treatment) / Percentage Increase in Total Plant Biomass Compared to Untreated Seed (2,4-D; Weedar ®64 Spray Treatment): over the top 2,4-D 500 ppm; for Percentage Increase in Plant Height Compared to Untreated Seed (Dicamba; Clash ™ Spray Treatment) / Percentage Increase in Total Plant Biomass Compared to Untreated Seed (Dicamba; Clash ™ Spray Treatment): over the top dicamba 100 ppm. As for the experimental part: Soybean (variety Asgrow AG4034) seed received a seed treatment with chlorothalonil dehalogenase (SEQ ID NO: 169) enzyme obtained from a production batch produced in a manner similar to that was described previously to generate the SM1 enzyme. Seed treatments were applied prior to planting. […] Seeds were then planted directly into 39.7 cm^3 pots containing a mixture of 3:1 Timberline top soil to MIRACLE GRO potting soil at a depth of 2.54 cm, with 2 seeds per pot. After planting, 50 mL of room temperature water was added to each pot to allow for germination. […] The treatments were then placed in a greenhouse and randomized using a complete block design to adjust for temperature and lighting differences. The plants received the same day/night cycle that would occur in the field on a summer's day. After the initial watering, plants received the same watering regimes. […] The soybean plants were then harvested and measured for biomass and plant height 4 weeks after planting.

Setting [9] is: listed as Chlorothalonil dehalogenase (SEQ ID NO: 169).

B1: CAC: 6-chloronicotinic acid chlorohydrolase from Bradyrhizobiaceae strain SG-6C, amino acid SEQ ID NO: 167 (protein)
chain: MSLIAIKNADWILTMDGARRVIADGSILIDKDRIRAIGKSAVIEIPPETTKVIDGRGKVVLPGLIDSHTHHSLHLGRGLADECDIQTFLYRRLYPIEASLNDEDAYISALLCQLEMIKSGTTSIIDAGNYFPEATLRAFGTTGMRGVVARSTFDIPTSSLGSLPAQVFAEETNVALKRAEEFVERNSGACDGRVQAWLQLRVLPNCSDELCRGLKSIADRLGVRYEAHAAFTKEVYEASKLQFGKSEVRRLDDLGILGEGLLLAHMGWLTPRDILLLISSKTNVVLCPTSSVHQAMGSIAFGHVPELLEMGVNVALGTDGGPHGTNDLVRQIFVAAGGYKEVRLDATIMPPETVLEMATVNGARAMGMSDQVGSIEPGKKADITIFDSRRPEWRPLHNPVANLVYCANGNSADTVIVDGRILMENRKILTFNEDDVITEAQRRSVEIGARAGLLEYGRPRWPVH
modifications: Bradyrhizobiaceae family
Consider B1, for which the figures for the “Percent (%) increase in 252 λ (end-product formed) compared to Mecoprop control” value in assay [1] (mecoprop 200 mg/L + enzyme at 20X dilution (5 μM)) and in assay [1] (mecoprop 200 mg/L + enzyme at 40X dilution ([…])) were 346% and 130%, respectively. For the same molecule, the “Percent (%) increase in 252 λ (end product formed) compared to MCPA-4-Amine control” value in assay [2] (MCPA-4 amine 200 mg/L + enzyme at 20X dilution (5 μM)) amounted to 340%; in assay [2] (MCPA-4 amine 200 mg/L + enzyme at 40X dilution ([…])), 195%. For the same molecule, the “average trifoliate damage score” value in the assay on soybean plants [3] is 1.0. Besides, the “Percent (%) increase in 252 λ, (end product formed) compared to 2,4-D control” value in assay [4] worked out at 148%. Moreover, in assay [5], the “Percent (%) increase in 259 λ (end product formed) compared to dicamba control” value is reported as 344%.

B2: TfdA: 2,4-D alpha-ketoglutarate dioxygenase with A198V mutation, SEQ ID NO: 277 (protein, UniProt P10088 1-287, looked up)
Alpha-ketoglutarate-dependent …: MSVVANPLHPLFAAGVEDIDLREALGSTEVREIERLMDEKSVLVFRGQPLSQDQQIAFARNFGPLEGGFIKVNQRPSRFKYAELADISNVSLDGKVAQRDAREVVGNFANQLWHSDSSFQQPAARYSMLSAVVVPPSGGDTEFCDMRAAYDALPRDLQSELEGLRAEHYALNSRFLLGDTDYSEAQRNAMPPVNWPLVRTHAGSGRKFLFIGAHASHVEGLPVAEGRMLLAELLEHATQREFVYRHRWNVGDLVMWDNRCVLHRGRRYDISARRELRRATTLDDAVV
Consider B2, for which the “2,4-dichlorophenol generated” value in assay [6] (2,4-D with TfdA enzyme, after 1 hour of incubation, 30° C. (FIG. 19)) was “over 2 mg/L”. Besides, the “reduction of 2,4-D concentration quantified by HPLC” value in assay [6] (2,4-D with TfdA, at 4 hours (FIG. 20)) is listed as around 10%.

B3: ChD (SEQ ID NO: 169): chlorothalonil dehalogenase from Pseudomonas species strain CTN-3 with fifteen amino acid N-terminal truncation, SEQ ID NO: 169 (protein, listed as Pseudomonas sp.)
chain: MPLKFSGVLCASLLTITLSVAAHATELILDFNKVQMRSQQLAPGVYAHLPADSAELNAKGGVAGTSGGLIVGTRGAMLIETMLNRRLFDQVQALAKKEALGLPLLYAVNTSYHGDHSYGNMYLKAPTRVIQSTKTRDYVDGHLADDKAFMVKNFGAGRGVEQITARTGDILVPPGGRVSVDLGGKTVEIIDFGFAQTGGDLFVWEPQSKVMWTGNAVVASKPALPWLLDGKLVETLATLQKVYDFLPPDATIVPGHGVPMAREGLRWHLDYLAAVQAGVKDALARKLSLEQTVTELKMPEFRGYVLFDWVHPDLNVPAAYKDLAARP
With B3, the “epinasty score and damage score on the trifoliate leaves compared to dicamba applied alone” value in the assay on soybean plants [7] is recorded as “decrease in damage”. The “average trifoliate damage score” value with soybean plants [3] stood at 1.1. In addition, in the assay with soybean plants [8], the “Percentage Increase in Plant Height Compared to Untreated Seed (2,4-D; Weedar ®64 Spray Treatment)” value is “+6%”, the “Percentage Increase in Total Plant Biomass Compared to Untreated Seed (2,4-D; Weedar ®64 Spray Treatment)” value is “+6%”, the “Percentage Increase in Plant Height Compared to Untreated Seed (Dicamba; Clash ™ Spray Treatment)” value is listed as “+35%” and the “Percentage Increase in Total Plant Biomass Compared to Untreated Seed (Dicamba; Clash ™ Spray Treatment)” value is “+149%”. Also, in the assay with soybean plants [8] (setting [9]), the “Percentage Increase in Plant Height Compared to Untreated Seed (2,4-D; Weedar ®64 Spray Treatment)” value is recorded as “+6%”, the “Percentage Increase in Total Plant Biomass Compared to Untreated Seed (2,4-D; Weedar ®64 Spray Treatment)” value is “+6%”, the “Percentage Increase in Plant Height Compared to Untreated Seed (Dicamba; Clash ™ Spray Treatment)” value is reported as “+35%” and the “Percentage Increase in Total Plant Biomass Compared to Untreated Seed (Dicamba; Clash ™ Spray Treatment)” value is “+149%”.
